This data set can be described thus: yeast display, Sf9 membrane polyspecificity reagent, FACS + sequencing; frameworks hold sequencing errors. In outline: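 Genes from sorted yeast were amplified by colony PCR, read by MiSeq 2 × 250 sequencing and filtered on CDR length. These cells carried a synthetic nanobody library in Saccharomyces cerevisiae BJ5465 and were sorted by FACS into low and high (top ~1%) gates on anti-HA and streptavidin fluorescence. Polyreactivity is labelled according to the gate of origin.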
“QVQLVESGGGLVQAGGSLRLSCAASGSIFVVNTLGWYRQAPGKEREFVAPISYNGGRTSYADSVKGRFTISRDNAKNTVYLQMNSLKPEDTEVYYCAAGGSVPRAYHISYFTQYDYWGQGTQVTVSS”: the “polyreactivity (PSR sort gate)” value is given as “low polyreactivity”.
“QVQLVESGGGLVQAGGSLRLSCAASGSIFVWYDMGWYRQAPGKERELVATFSLSGVSTYYADSVKGRFTISRDNAKNTVYLQMNSLKPEDSAVYYCAADFVEQGEDDYWGQGTQVTVSS”: the “polyreactivity (PSR sort gate)” value was “low polyreactivity”.
“QVQLVESGGGLVQAGGSLRLSCAASGSIFVWYVMGWYRQAPGKERELVAAITWSAARTYDADSVKGRFTISRDNAKNTVYLQMNSLKPADTAVYYCAADHVSYQPSSRIFDYWGQGTQVTVSS”: the “polyreactivity (PSR sort gate)” value was “low polyreactivity”.
Take “QVQLVESGGGLVQAGGSLRLSCAASGSIFVYNAMGWYRQAPGKEREMVARITYIGTSTYYADSVKGRFTISRDNAKNSVYLQMNSLKPEDTGVYYCNARRRHEGSPPYGYWGQGTQVTVSS”: the “polyreactivity (PSR sort gate)” value is “high polyreactivity”.
Regarding “QVQLVESGGGLVQAGGSLRLSCAASGSIFVYNDKGWYRQAPGKERELVADISSGGTTDYADSVKGRFTISRDNAKNTVYLQMNSLKPEDTAVYYCAAESYIEYYLKYDYWGQGTQVTVSS”, the “polyreactivity (PSR sort gate)” value is “low polyreactivity”.
On to “QVQLVESGGGLVQAGGSLRLSCAASGSIFVYNDMGWYRQAPGKERELVAGIDWSGDRTYADSVKGRFTSSRDNAKNTVYLHMNSLKPEDTAVYYCNADEWRWDEIIPYAVDYWGQGTQVTVSS”, for which the “polyreactivity (PSR sort gate)” value is “low polyreactivity”.
“QVQLVESGGGLVQAGGSLRLSCAASGSIFVYNPMGSYREPPGKERELVAAISQRGGSTYYADSVKGRFTISRDNANNTVYLQMYSLKPEDTAVYYCAAGPGDSGDDYWGQGTQVTVSS”: the “polyreactivity (PSR sort gate)” value is recorded as “low polyreactivity”.
With “QVQLVESGGGLVQAGGSLRLSCAASGSIFVYYAMGWYRQAPGKERELVAAISSRGGSTYYADSVKGRFTISRDNAKNTVYLQMNSLKPEDTAVYYCAAYTLDGVNGRVLDDYWGQGTQVTVSS”, the “polyreactivity (PSR sort gate)” value was “low polyreactivity”.
Consider “QVQLVESGGGLVQAGGSLRLSCAASGSIFVYYTMGWYRQAPGKESELVAAISISGTSTYYADSVKGRFTISRDNAKYTVYLQLNSLKPEDTAVYYCAADTFYGEDYWGQGTQVTVSS”, for which the “polyreactivity (PSR sort gate)” value is on record as “low polyreactivity”.
For “QVQLVESGGGLVQAGGSLRLSCAASGSIFVYYTMGWYRQSPGKEREMVAAITYSGGSKYYADSVKGRFTISRDNAKNTVYLQMNRLKPEDTAVYYCNAKSAAHRYVRRHDYWGQGTQVTVSW”, the “polyreactivity (PSR sort gate)” value is “low polyreactivity”.
Turning to “QVQLVESGGGLVQAGGSLRLSCAASGSIFWAYTMGWYRQAPGKERELVAAISASGGSTYYADSVKGRFTISRDNAKNTFYLQMNSLKPEDTAVYYCNKDYHRPYGGGSKGDYWGQGTQVTVSS”, the “polyreactivity (PSR sort gate)” value is “low polyreactivity”.
As to “QVQLVESGGGLVQAGGSLRLSCAASGSIFWFNAMGWYRQAPGKERELVAAIRRIGGSTYYADSVKGRFTISRDNAKNTVYLQMNSLKPEDTAVYYCAAGVTFRGASYGYWGQGTQVTVSS”, the “polyreactivity (PSR sort gate)” value is “high polyreactivity”.
Under “QVQLVESGGGLVQAGGSLRLSCAASGSIFWFYAMGWYRQAPGKERELVAAISYSGGITYYADSVKGRFTISRDNAKNTVYLQMNSLKPEDTAVYYCNADGPSTPWVDYGYWGQGTQVTVSS” stands “low polyreactivity”; under “QVQLVESGGGLVQAGGSLRLSCAASGSIFWGNAMGWYRPAPGKERELVASISDSGGSTYADSVKGRFTISRDNAKNTVYLQMNSLKPEDTAVYYCAADDWYSAGIRNWYYGGYDYWGQGTQVTVSS”, “low polyreactivity”.
To “QVQLVESGGGLVQAGGSLRLSCAASGSIFWGNAMGWYRQAPGKEREMVAAITWSGGSTYYADSVKGRFTISRDNAKNTVYLQMNSLKPEDTAVYYCYAVYIGSRRRYEYDYWGQGTQVTVSS” belongs “high polyreactivity”.
To “QVQLVESGGGLVQAGGSLRLSCAASGSIFWGYAMGWYRPAPGKERELVATIRNRGGSTYYADSVKGRFTISRDNAKNTVYLQMNSLKPEDTAVYYCAAVSYRQYYGWGNYWGQGTQVTVSS” belongs “low polyreactivity”.
Turning to “QVQLVESGGGLVQAGGSLRLSCAASGSIFWGYAMGWYRQAPGKERELVAAIRNGGSTNYADSVKGRFTISRDNAKNTVYLQMNSLKPEDTAVYYCAKYYYYLRSARKYDYWGQGTQVTVSS”, the “polyreactivity (PSR sort gate)” value was “high polyreactivity”.
Turning to “QVQLVESGGGLVQAGGSLRLSCAASGSIFWGYAMGWYRQAPGKERELVASSTNYADSVKGRFTISRDNAKNTVYLQMNSLKPEDTAVYYCAREQGVNRNHDYWGQGTQVTVSS”, the “polyreactivity (PSR sort gate)” value is listed as “low polyreactivity”.
As for “QVQLVESGGGLVQAGGSLRLSCAASGSIFWGYAMGWYRQAPGKERELVAVITWSVGRTYYADSVKGRFTISRDNAKNTVYLQMNSLKPEDTAVYYCNAKSWYGGSYYRYDYWGQGTQVTVSS”, the “polyreactivity (PSR sort gate)” value is reported as “low polyreactivity”.
Regarding “QVQLVESGGGLVQAGGSLRLSCAASGSIFWIYAMGCYRQAPGKERELVATITRRGGSTYYADSVKGRFTISRDNAKNTVYLQMNSLKPEDTAVYYCATEPGYTYLTSYKYDYWGQGTQVTVSS”, the “polyreactivity (PSR sort gate)” value is on record as “low polyreactivity”.
As to “QVQLVESGGGLVQAGGSLRLSCAASGSIFWKNVMGSYRQAPGKERELVAGISQNGGSTTYADSVKGRFTISRDNAKNTVYLQMNSLKPEDTAVYYCAAKRYGPFKYGYWGQGTQVTVSS”, the “polyreactivity (PSR sort gate)” value is “high polyreactivity”.
To “QVQLVESGGGLVQAGGSLRLSCAASGSIFWKYAMGWYRQAPGKERELVAAISRSSSTTYYADSVKGRFTISRDNAKNTVYLQMNSLKPEDTAVYYCAAYYRSRVSDDYWGQGTQVTVSS” belongs “high polyreactivity”; to “QVQLVESGGGLVQAGGSLRLSCAASGSIFWLYAMGWYRQAPGKERELVAAITRRGGSTYYADSVKGRFTISRDNAKNTVYLQMNSLKPEDTAVYYCNRLYYSGSGASLDYWGQGTQVTVSS”, “high polyreactivity”.
Consider “QVQLVESGGGLVQAGGSLRLSCAASGSIFWLYAMGWYRQAPGKERELVAAITWSGGRTYYADSVKGRFTISRDNAKNTVYLQMNSLKPEDTAVYYCARRQWPWYSNPARGGKYDYWGQGTQVTVSS”, for which the “polyreactivity (PSR sort gate)” value is on record as “low polyreactivity”.
For the sequence “QVQLVESGGGLVQAGGSLRLSCAASGSIFWNNAMGWYIQAPGKEREWVAGISSAGSTNYADSVKGRFTISRDNAKNTVYLQMNSLKPEDTAVYYCAASYFRDYVWLRSNVRYYYWGQGTQVTVSS”, the “polyreactivity (PSR sort gate)” value is “low polyreactivity”.
With “QVQLVESGGGLVQAGGSLRLSCAASGSIFWQTPMGWYRQAPGKERELVAAITRSGGSTYYADSVKGRFTISRDNAKITVYLQMNSLKPEDTLVYYCKKYGYKGGVGDDYWGQGTQVTVSS”, the “polyreactivity (PSR sort gate)” value is listed as “high polyreactivity”.
With “QVQLVESGGGLVQAGGSLRLSCAASGSIFWRYAMGWYRQAPGKERELVAVISRSGGRTYYADSVKGRFTISRDNAKNTVYLQMNSLKPEDTAVNYCAADYYGVYSKRYGFDYWGQGTQVTVSS”, the “polyreactivity (PSR sort gate)” value was “high polyreactivity”.
On to “QVQLVESGGGLVQAGGSLRLSCAASGSIFWRYSMGWYRQAPGKERELVAAINYSTTRTYYADSVKGRFTISRDNAKNTVYLQMNSLKPEDTAVYYCAADSRVDEGEYWGQGTQVTVSS”, for which the “polyreactivity (PSR sort gate)” value is “high polyreactivity”.
Take “QVQLVESGGGLVQAGGSLRLSCAASGSIFWSNAMGWYIQAPGKERELVAAITGGGTTNYADSVKGRFTISRDNAKNTVYLQMNSLKPEDTAVVYTVSSAQYDYWGQGTQVTVSS”: the “polyreactivity (PSR sort gate)” value is listed as “low polyreactivity”.
In the case of “QVQLVESGGGLVQAGGSLRLSCAASGSIFWSYAMGWYRHAPGKESELVAAITYSGTSTYYADSVKGRFTISRDTAKNTVYLQMNSLKPEDTAVYYCAASPFSRSRNDYWGQGTQVTLSS”, the “polyreactivity (PSR sort gate)” value is “low polyreactivity”.
Under “QVQLVESGGGLVQAGGSLRLSCAASGSIFWSYAMGWYRQAPGKERELVAAIRRGGSTNYADSVKGRFTISRDNAKNTVYLQMNSLKPEDTAVYYCAKSRGVRREPPKYATTYNYWGQGTQVTVSS” stands “low polyreactivity”; under “QVQLVESGGGLVQAGGSLRLSCAASGSIFWTYAMGWSRQAPGKERELVATITYSDGNTYYADSVKGRFTISRDNAKNTVYFQMNSLKPEDTAVYYCNADGIYATISGYRYDYWGQGTQVTVSS”, “low polyreactivity”; under “QVQLVESGGGLVQAGGSLRLSCAASGSIFWVYAMGWYRQAPGKEREFVAAITYSGGSTYYADSVKGRFTISRDNAKNTVYLQMNSLKPEDTAVYYCAADYDYDYGSRYYYWGQGTQVTVSS”, “low polyreactivity”.
To “QVQLVESGGGLVQAGGSLRLSCAASGSIFWVYAMGWYRQAPGKERELVAAISNRGGSTYYSDSVKGRFTISRDNAKITVYLQMNSLKPEDTAVYYCAAVVAHHYYWGQGTQVTVSS” belongs “high polyreactivity”; to “QVQLVESGGGLVQAGGSLRLSCAASGSIFWWYTMGRYRQAPGKERELVAAITWNADGTYYADSVKGRFTISRDNAKNTVYLQMNSLKPEDTAVYYCAADQYYLDWGGGYDYWGQGPQVTVSS”, “low polyreactivity”.
In the case of “QVQLVESGGGLVQAGGSLRLSCAASGSIFWYNAMGWYIHAPWNERELVAAITSSSGRTRYADSEKGRFTISRDNAKNTVYLQMNSLKQEDTAVYYCAVAEGYSPAYLRDYWGQGTQVTVSS”, the “polyreactivity (PSR sort gate)” value is recorded as “high polyreactivity”.
For the sequence “QVQLVESGGGLVQAGGSLRLSCAASGSIFWYNAMGWYRQAPGKERELVAAISRSGSRTYYADSVKGRFTISRDNAKNTVYVQMTSLKPEATAVYYCARVRPRGLYFVLHYDYWGQGTQVTVSS”, the “polyreactivity (PSR sort gate)” value is recorded as “high polyreactivity”.
With “QVQLVESGGGLVQAGGSLRLSCAASGSIFWYNAMGWYRQAPGKERELVAAITSGGTTSYADSVKGRFTISRDNAKNTVYLQMNSLKPEDTAVYYCAKDWNDDQHSWDTPFDYWGQGTQVTVSS”, the “polyreactivity (PSR sort gate)” value is on record as “low polyreactivity”.
Regarding “QVQLVESGGGLVQAGGSLRLSCAASGSIFWYNAMVWYRQAPGKERELVAAISYSGDRTYYADSVKGRFTISRDNAKYTVYLQMNSLKPEDTAFYYCAKAGTGFYNSWWEDYWGQGTQVTVSS”, the “polyreactivity (PSR sort gate)” value is “low polyreactivity”.
Under “QVQLVESGGGLVQAGGSLRLSCAASGSIFWYNSMGWYRQAPGKERELVAAISYRGGRTYYADSVKGRFTISRDNAKNTVYLQMNSLKPEDTAVYYCNAPRYLGGGQDALGDYWGQGTQVTVSS” stands “high polyreactivity”.

Values taken from the nanobody polyreactivity screen of Harvey et al. (2022).
